Results: US20200087373A1 (UNIVERSITY OF COPENHAGEN, published 2020)
Ends that are not written are not given here. * marks the point of attachment. Palmitoyl = CCCCCCCCCCCCCCCC(=O)*; Lauroyl = CCCCCCCCCCCC(=O)*

B1: AT104 [hGIP(3-30)NH2-C16/3] (peptide)
peptide: Palmitoyl-EGTFISDYSIAMDKIHQQDFVNWLLAQK-NH2
B2: hGIP(3-30)NH2 (peptide)
peptide: EGTFISDYSIAMDKIHQQDFVNWLLAQK-NH2
B3: AT102 [hGIP(3-30)NH2-C12/16] (peptide)
peptide: EGTFISDYSIAMDK(Lauroyl)IHQQDFVNWLLAQK-NH2
B4: AT103 [hGIP(3-30)NH2-C12/30] (peptide)
peptide: EGTFISDYSIAMDKIHQQDFVNWLLAQK(Lauroyl)-NH2
B5: AT101 [hGIP(3-30)NH2-C12/3] (peptide)
peptide: Lauroyl-EGTFISDYSIAMDKIHQQDFVNWLLAQK-NH2
B6: AT101 [hGIP(3-30)NH2-C12/3] (peptide)
peptide: Lauroyl-EGTFISDYSIAMDKIHQQDFVNWLLAQK-NH2
B7: AT107 [hGIP(3-30)NH2[T5W; D15E; H18A]-C16/16] (peptide)
peptide: EGWFISDYSIAMEK(Palmitoyl)IAQQDFVNWLLAQK-NH2
modifications: N-terminus assumed
SMILES: CCCCCCCCCCCCCCCC(=O)NCCCC[C@H](NC(=O)[C@H](CCC(=O)O)NC(=O)[C@H](CCSC)NC(=O)[C@H](C)NC(=O)[C@@H](NC(=O)[C@H](CO)NC(=O)[C@H](Cc1ccc(O)cc1)NC(=O)[C@H](CC(=O)O)NC(=O)[C@H](CO)NC(=O)[C@@H](NC(=O)[C@H](Cc1ccccc1)NC(=O)[C@H](Cc1c[nH]c2ccccc12)NC(=O)CNC(=O)[C@@H](N)CCC(=O)O)[C@@H](C)CC)[C@@H](C)CC)C(=O)N[C@H](C(=O)N[C@@H](C)C(=O)N[C@@H](CCC(N)=O)C(=O)N[C@@H](CCC(N)=O)C(=O)N[C@@H](CC(=O)O)C(=O)N[C@@H](Cc1ccccc1)C(=O)N[C@H](C(=O)N[C@@H](CC(N)=O)C(=O)N[C@@H](Cc1c[nH]c2ccccc12)C(=O)N[C@@H](CC(C)C)C(=O)N[C@@H](CC(C)C)C(=O)N[C@@H](C)C(=O)N[C@@H](CCC(N)=O)C(=O)N[C@@H](CCCCN)C(N)=O)C(C)C)[C@@H](C)CC
B8: AT143 [hGIP(3-30)NH2[M14L; H18K]-C16/18] (peptide)
peptide: EGTFISDYSIALDKIK(Palmitoyl)QQDFVNWLLAQK-NH2
modifications: N-terminus assumed
SMILES: CCCCCCCCCCCCCCCC(=O)NCCCC[C@H](NC(=O)[C@@H](NC(=O)[C@H](CCCCN)NC(=O)[C@H](CC(=O)O)NC(=O)[C@H](CC(C)C)NC(=O)[C@H](C)NC(=O)[C@@H](NC(=O)[C@H](CO)NC(=O)[C@H](Cc1ccc(O)cc1)NC(=O)[C@H](CC(=O)O)NC(=O)[C@H](CO)NC(=O)[C@@H](NC(=O)[C@H](Cc1ccccc1)NC(=O)[C@@H](NC(=O)CNC(=O)[C@@H](N)CCC(=O)O)[C@@H](C)O)[C@@H](C)CC)[C@@H](C)CC)[C@@H](C)CC)C(=O)N[C@@H](CCC(N)=O)C(=O)N[C@@H](CCC(N)=O)C(=O)N[C@@H](CC(=O)O)C(=O)N[C@@H](Cc1ccccc1)C(=O)N[C@H](C(=O)N[C@@H](CC(N)=O)C(=O)N[C@@H](Cc1c[nH]c2ccccc12)C(=O)N[C@@H](CC(C)C)C(=O)N[C@@H](CC(C)C)C(=O)N[C@@H](C)C(=O)N[C@@H](CCC(N)=O)C(=O)N[C@@H](CCCCN)C(N)=O)C(C)C
B9: AT130 [hGIP(3-30)NH2[D15E; H18A]-C12/30] (peptide)
peptide: EGTFISDYSIAMEKIAQQDFVNWLLAQK(C12 fatty acyl)-NH2
B10: AT144 [hGIP(3-30)NH2[K16R; H18K; K30R]-C16/18] (peptide)
peptide: EGTFISDYSIAMDRIK(Palmitoyl)QQDFVNWLLAQR-NH2
modifications: N-terminus assumed
SMILES: CCCCCCCCCCCCCCCC(=O)NCCCC[C@H](NC(=O)[C@@H](NC(=O)[C@H](CCCNC(=N)N)NC(=O)[C@H](CC(=O)O)NC(=O)[C@H](CCSC)NC(=O)[C@H](C)NC(=O)[C@@H](NC(=O)[C@H](CO)NC(=O)[C@H](Cc1ccc(O)cc1)NC(=O)[C@H](CC(=O)O)NC(=O)[C@H](CO)NC(=O)[C@@H](NC(=O)[C@H](Cc1ccccc1)NC(=O)[C@@H](NC(=O)CNC(=O)[C@@H](N)CCC(=O)O)[C@@H](C)O)[C@@H](C)CC)[C@@H](C)CC)[C@@H](C)CC)C(=O)N[C@@H](CCC(N)=O)C(=O)N[C@@H](CCC(N)=O)C(=O)N[C@@H](CC(=O)O)C(=O)N[C@@H](Cc1ccccc1)C(=O)N[C@H](C(=O)N[C@@H](CC(N)=O)C(=O)N[C@@H](Cc1c[nH]c2ccccc12)C(=O)N[C@@H](CC(C)C)C(=O)N[C@@H](CC(C)C)C(=O)N[C@@H](C)C(=O)N[C@@H](CCC(N)=O)C(=O)N[C@@H](CCCNC(=N)N)C(N)=O)C(C)C
B11: AT153 [hGIP(3-30)NH2[H18R; K30R]-C12/16] (peptide)
peptide: EGTFISDYSIAMDK(Lauroyl)IRQQDFVNWLLAQR-NH2
modifications: N-terminus assumed
SMILES: CCCCCCCCCCCC(=O)NCCCC[C@H](NC(=O)[C@H](CC(=O)O)NC(=O)[C@H](CCSC)NC(=O)[C@H](C)NC(=O)[C@@H](NC(=O)[C@H](CO)NC(=O)[C@H](Cc1ccc(O)cc1)NC(=O)[C@H](CC(=O)O)NC(=O)[C@H](CO)NC(=O)[C@@H](NC(=O)[C@H](Cc1ccccc1)NC(=O)[C@@H](NC(=O)CNC(=O)[C@@H](N)CCC(=O)O)[C@@H](C)O)[C@@H](C)CC)[C@@H](C)CC)C(=O)N[C@H](C(=O)N[C@@H](CCCNC(=N)N)C(=O)N[C@@H](CCC(N)=O)C(=O)N[C@@H](CCC(N)=O)C(=O)N[C@@H](CC(=O)O)C(=O)N[C@@H](Cc1ccccc1)C(=O)N[C@H](C(=O)N[C@@H](CC(N)=O)C(=O)N[C@@H](Cc1c[nH]c2ccccc12)C(=O)N[C@@H](CC(C)C)C(=O)N[C@@H](CC(C)C)C(=O)N[C@@H](C)C(=O)N[C@@H](CCC(N)=O)C(=O)N[C@@H](CCCNC(=N)N)C(N)=O)C(C)C)[C@@H](C)CC
B12: AT131 [hGIP(3-30)NH2[D15E; H18A]-C16/16] (peptide)
peptide: EGTFISDYSIAMEK(Palmitoyl)IAQQDFVNWLLAQK-NH2
modifications: N-terminus assumed
SMILES: CCCCCCCCCCCCCCCC(=O)NCCCC[C@H](NC(=O)[C@H](CCC(=O)O)NC(=O)[C@H](CCSC)NC(=O)[C@H](C)NC(=O)[C@@H](NC(=O)[C@H](CO)NC(=O)[C@H](Cc1ccc(O)cc1)NC(=O)[C@H](CC(=O)O)NC(=O)[C@H](CO)NC(=O)[C@@H](NC(=O)[C@H](Cc1ccccc1)NC(=O)[C@@H](NC(=O)CNC(=O)[C@@H](N)CCC(=O)O)[C@@H](C)O)[C@@H](C)CC)[C@@H](C)CC)C(=O)N[C@H](C(=O)N[C@@H](C)C(=O)N[C@@H](CCC(N)=O)C(=O)N[C@@H](CCC(N)=O)C(=O)N[C@@H](CC(=O)O)C(=O)N[C@@H](Cc1ccccc1)C(=O)N[C@H](C(=O)N[C@@H](CC(N)=O)C(=O)N[C@@H](Cc1c[nH]c2ccccc12)C(=O)N[C@@H](CC(C)C)C(=O)N[C@@H](CC(C)C)C(=O)N[C@@H](C)C(=O)N[C@@H](CCC(N)=O)C(=O)N[C@@H](CCCCN)C(N)=O)C(C)C)[C@@H](C)CC
B13: AT145 [hGIP(5-30)NH2[H18K]-C16/18] (peptide)
peptide: TFISDYSIAMDKIK(Palmitoyl)QQDFVNWLLAQK-NH2
modifications: N-terminus assumed
SMILES: CCCCCCCCCCCCCCCC(=O)NCCCC[C@H](NC(=O)[C@@H](NC(=O)[C@H](CCCCN)NC(=O)[C@H](CC(=O)O)NC(=O)[C@H](CCSC)NC(=O)[C@H](C)NC(=O)[C@@H](NC(=O)[C@H](CO)NC(=O)[C@H](Cc1ccc(O)cc1)NC(=O)[C@H](CC(=O)O)NC(=O)[C@H](CO)NC(=O)[C@@H](NC(=O)[C@H](Cc1ccccc1)NC(=O)[C@@H](N)[C@@H](C)O)[C@@H](C)CC)[C@@H](C)CC)[C@@H](C)CC)C(=O)N[C@@H](CCC(N)=O)C(=O)N[C@@H](CCC(N)=O)C(=O)N[C@@H](CC(=O)O)C(=O)N[C@@H](Cc1ccccc1)C(=O)N[C@H](C(=O)N[C@@H](CC(N)=O)C(=O)N[C@@H](Cc1c[nH]c2ccccc12)C(=O)N[C@@H](CC(C)C)C(=O)N[C@@H](CC(C)C)C(=O)N[C@@H](C)C(=O)N[C@@H](CCC(N)=O)C(=O)N[C@@H](CCCCN)C(N)=O)C(C)C

These binders were tested against T1, human GIP receptor (human, UniProt P48546 22-466) (assay: cell-based or functional assay).
T1 sequence (looked up): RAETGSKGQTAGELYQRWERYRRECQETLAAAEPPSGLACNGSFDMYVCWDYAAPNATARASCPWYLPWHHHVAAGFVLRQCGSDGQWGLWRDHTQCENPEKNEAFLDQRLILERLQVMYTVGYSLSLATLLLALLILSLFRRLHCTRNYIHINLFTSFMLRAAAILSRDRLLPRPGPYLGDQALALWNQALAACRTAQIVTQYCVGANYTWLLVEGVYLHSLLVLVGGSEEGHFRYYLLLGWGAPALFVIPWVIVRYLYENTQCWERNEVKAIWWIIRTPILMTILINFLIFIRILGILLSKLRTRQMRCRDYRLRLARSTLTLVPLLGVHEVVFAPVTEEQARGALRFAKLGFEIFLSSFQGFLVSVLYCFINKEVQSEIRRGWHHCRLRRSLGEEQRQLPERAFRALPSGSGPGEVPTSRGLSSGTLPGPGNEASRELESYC

Point of comparison: B5, “cAMP agonism, EC50 (log)” value -9.1 log M. Against it:
- B1 — higher, -8.6 log M
- B3 — the same, -9.1 log M
- B4 — higher, -5.3 log M

Point of comparison: B3, “cAMP agonism, Emax” value 66%. Against it:
- B1 — higher, 81%
- B4 — lower, 7%
- B5 — lower, 62%

Point of comparison: B5, “cAMP agonism, nM (EC50)” value 0.7 nM. Against it:
- B1 — 3.4-fold higher, 2.4 nM
- B3 — the same, 0.7 nM
- B4 — 7000-fold higher, 4880 nM

Point of comparison: B4, “cAMP antagonism, log (IC50)” value -6.9 log M. Against it:
- B2 — lower, -7.2 log M

Point of comparison: B2, “cAMP antagonism, nM (IC50)” value 65 nM. Against it:
- B4 — 1.9-fold higher, 121 nM

What follows are binders tested against T2, human GIP receptor (human, UniProt P48546 22-466) (assay: 125I-hGIP competition binding, COS-7 cells expressing hGIPR;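 also: nonspecific binding taken as radioligand bound by untransfected cells, binding buffer with or without 2% HSA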).
T2 construct: whole, on cells; also called hGIPR
T2 sequence (looked up): T1 sequence (looked up)
Method: After incubation, the cells were washed twice in ice-cold binding buffer (+/−2% HSA) and lysed using 200 mM NaOH with 1% SDS for 30 min. Nonspecific binding was determined as the binding of radioactive ligand to untransfected cells.

Point of comparison: B12, IC50 6510 nM. Against it:
- B6 — 660-fold lower, 9.9 nM
- B7 — within 1.5-fold, 5220 nM
- B8 — 81-fold lower, 80 nM
- B9 — 5.4-fold lower, 1210 nM
- B10 — 22-fold lower, 297 nM
- B11 — 21-fold lower, 316 nM
- B13 — 42-fold lower, 155 nM

Point of comparison: B6, “log IC50” value -8 log M. Against it:
- B7 — higher, -5.3 log M
- B9 — higher, -5.9 log M
- B10 — higher, -6.53 log M
- B11 — higher, -7 log M
- B12 — higher, -5.2 log M
- B13 — higher, -6.8 log M
